{"source": "paper PMC9324987", "about": "“Comparative Analysis of Catabolic and Anabolic Dehydroshikimate Dehydratases for 3,4-DHBA Production in Escherichia coli” (Microorganisms, 2022)", "key": {"[1]": {"target": "T1, QsuB (Corynebacterium glutamicum, UniProt Q8NT86)", "T1 construct": "gene Cgl0422", "T1 sequence (Q8NT86 1-618)": "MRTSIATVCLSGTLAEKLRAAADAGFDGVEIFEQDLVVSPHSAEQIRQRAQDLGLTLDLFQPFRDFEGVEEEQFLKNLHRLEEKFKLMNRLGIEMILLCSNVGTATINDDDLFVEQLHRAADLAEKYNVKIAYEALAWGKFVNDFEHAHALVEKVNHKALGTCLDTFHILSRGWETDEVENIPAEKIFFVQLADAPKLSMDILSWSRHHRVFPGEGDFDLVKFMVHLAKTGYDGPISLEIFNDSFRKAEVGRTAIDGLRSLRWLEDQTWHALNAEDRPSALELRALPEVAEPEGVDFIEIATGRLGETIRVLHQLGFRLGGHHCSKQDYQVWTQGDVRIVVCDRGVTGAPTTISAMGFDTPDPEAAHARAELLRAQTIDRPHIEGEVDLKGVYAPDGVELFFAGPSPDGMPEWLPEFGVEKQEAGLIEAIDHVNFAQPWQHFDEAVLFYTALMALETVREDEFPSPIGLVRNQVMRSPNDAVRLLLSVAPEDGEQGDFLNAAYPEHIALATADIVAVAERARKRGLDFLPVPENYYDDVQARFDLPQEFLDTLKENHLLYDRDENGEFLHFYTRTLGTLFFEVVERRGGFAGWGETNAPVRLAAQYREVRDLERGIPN", "assay": "[…],4-DHBA formation at […] nm, product inhibition", "assay_type": "biochemical"}, "[2]": {"target": "T2, AsbF (Bacillus thuringiensis, UniProt A0A1B1L4G3)", "T2 construct": "gene CAB88_09740", "T2 sequence (A0A1B1L4G3 1-280)": "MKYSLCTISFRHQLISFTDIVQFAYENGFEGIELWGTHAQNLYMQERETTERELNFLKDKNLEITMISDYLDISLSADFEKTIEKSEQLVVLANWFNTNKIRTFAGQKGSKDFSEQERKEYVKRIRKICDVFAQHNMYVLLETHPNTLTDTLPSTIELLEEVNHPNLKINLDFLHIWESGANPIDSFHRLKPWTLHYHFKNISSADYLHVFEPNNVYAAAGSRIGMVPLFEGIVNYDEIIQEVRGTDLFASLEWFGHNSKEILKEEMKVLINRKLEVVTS", "assay": "[…],4-DHBA formation at […] nm, product inhibition", "assay_type": "biochemical", "details": "1 mM DHS, 10 mM Mg2+, 0.1 M Tris/HCl pH 7.5, 20 °C, 150 nM enzyme"}, "[3]": {"target": "T3, Qa-4 (Neurospora crassa, UniProt P07046)", "T3 construct": "full length, C-terminal His6 (pET22b), codon-optimised synthetic gene, made in E. coli BL21(DE3); primer-encoded N-terminus MPSKLAISS", "T3 sequence (P07046 1-359)": "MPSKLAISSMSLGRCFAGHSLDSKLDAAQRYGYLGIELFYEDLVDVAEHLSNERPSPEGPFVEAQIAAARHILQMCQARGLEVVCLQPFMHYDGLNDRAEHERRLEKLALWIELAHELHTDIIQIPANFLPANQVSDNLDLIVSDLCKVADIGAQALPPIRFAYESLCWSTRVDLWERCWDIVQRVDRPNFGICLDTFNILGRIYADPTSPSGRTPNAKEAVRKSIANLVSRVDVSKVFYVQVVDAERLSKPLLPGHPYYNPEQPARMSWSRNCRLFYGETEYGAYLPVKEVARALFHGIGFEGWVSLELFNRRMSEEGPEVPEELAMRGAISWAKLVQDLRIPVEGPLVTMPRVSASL", "assay": "[…],4-DHBA formation at […] nm, product inhibition", "assay_type": "biochemical"}, "[4]": {"substrate": "O=C(O)C1=CC(=O)[C@@H](O)[C@H](O)C1", "assay": "purified protein", "assay_type": "biochemical, Neurospora crassa", "details": "10 mM Mg2+, 0.1 M Tris/HCl pH 7.5, 20 °C, 0.1-5 mM DHS"}, "[5]": {"substrate": "O=C(O)C1=CC(=O)[C@@H](O)[C@H](O)C1", "assay": "purified protein", "assay_type": "biochemical, Corynebacterium glutamicum", "details": "10 mM metal salt (preferred metal, Co2+), 0.1 M Tris/HCl pH 7.5, 20 °C, 0.1-5 mM DHS"}}}
{"molecule": "O=C(O)c1ccc(O)c(O)c1", "note": "[3,4-DHBA]", "values": [{"measurement": "IC50", "setting": "[1]", "result": "~350", "unit": "µM"}, {"measurement": "IC50", "setting": "[2]", "result": "~80", "unit": "µM"}, {"measurement": "IC50", "setting": "[3]", "result": "~640", "unit": "µM"}]}
{"molecule": "Qa-4 (Neurospora crassa OR74A) (protein, full length, C-terminal His6 (pET22b), codon-optimised synthetic gene, made in E. coli BL21(DE3); primer-encoded N-terminus MPSKLAISS) MPSKLAISSMSLGRCFAGHSLDSKLDAAQRYGYLGIELFYEDLVDVAEHLSNERPSPEGPFVEAQIAAARHILQMCQARGLEVVCLQPFMHYDGLNDRAEHERRLEKLALWIELAHELHTDIIQIPANFLPANQVSDNLDLIVSDLCKVADIGAQALPPIRFAYESLCWSTRVDLWERCWDIVQRVDRPNFGICLDTFNILGRIYADPTSPSGRTPNAKEAVRKSIANLVSRVDVSKVFYVQVVDAERLSKPLLPGHPYYNPEQPARMSWSRNCRLFYGETEYGAYLPVKEVARALFHGIGFEGWVSLELFNRRMSEEGPEVPEELAMRGAISWAKLVQDLRIPVEGPLVTMPRVSASL", "values": [{"measurement": "Km", "setting": "[4]", "result": "598 ± 16", "unit": "µM"}, {"measurement": "kcat", "setting": "[4]", "result": "218.6 ± 1.1", "unit": "s⁻¹"}, {"measurement": "kcat/Km", "setting": "[4]", "result": "366000 ± 68800", "unit": "M⁻¹ s⁻¹"}]}
{"molecule": "QsuB (Corynebacterium glutamicum ATCC 13032) (protein) MRTSIATVCLSGTLAEKLRAAADAGFDGVEIFEQDLVVSPHSAEQIRQRAQDLGLTLDLFQPFRDFEGVEEEQFLKNLHRLEEKFKLMNRLGIEMILLCSNVGTATINDDDLFVEQLHRAADLAEKYNVKIAYEALAWGKFVNDFEHAHALVEKVNHKALGTCLDTFHILSRGWETDEVENIPAEKIFFVQLADAPKLSMDILSWSRHHRVFPGEGDFDLVKFMVHLAKTGYDGPISLEIFNDSFRKAEVGRTAIDGLRSLRWLEDQTWHALNAEDRPSALELRALPEVAEPEGVDFIEIATGRLGETIRVLHQLGFRLGGHHCSKQDYQVWTQGDVRIVVCDRGVTGAPTTISAMGFDTPDPEAAHARAELLRAQTIDRPHIEGEVDLKGVYAPDGVELFFAGPSPDGMPEWLPEFGVEKQEAGLIEAIDHVNFAQPWQHFDEAVLFYTALMALETVREDEFPSPIGLVRNQVMRSPNDAVRLLLSVAPEDGEQGDFLNAAYPEHIALATADIVAVAERARKRGLDFLPVPENYYDDVQARFDLPQEFLDTLKENHLLYDRDENGEFLHFYTRTLGTLFFEVVERRGGFAGWGETNAPVRLAAQYREVRDLERGIPN", "values": [{"measurement": "Km", "setting": "[5]", "result": "961 ± 77", "unit": "µM"}, {"measurement": "kcat", "setting": "[5]", "result": "60.8 ± 0.9", "unit": "s⁻¹"}, {"measurement": "kcat/Km", "setting": "[5]", "result": "63300 ± 11700", "unit": "M⁻¹ s⁻¹"}]}
